According to the nanobody polyreactivity screen of Harvey et al. (2022):

Experiment: yeast display, Sf9 membrane polyspecificity reagent, FACS + sequencing; frameworks hold sequencing errors
Procedure, shortened: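 Nanobodies came from a synthetic yeast display library in Saccharomyces cerevisiae BJ5465, induced with galactose for 36–48 hours and stained for 1 hour at 4 °C with 10% biotinylated, detergent-solubilized Sf9 membrane reagent. Cells were enriched on streptavidin microbeads and then FACS-sorted, with low and high (top ~1%) gates set on anti-HA fluorescence for expression and streptavidin fluorescence for reagent binding. Each polyreactivity label reflects the gate a clone came from. Genes were amplified by colony PCR, sequenced by MiSeq 2 × 250 and filtered by CDR length.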

| Sequence | polyreactivity (PSR sort gate) |
| --- | --- |
| QVQLVESGGGLVQAGGSLRLCCAAYGFTFRINAMGWYRQAHGKERELVAYMSGRGGSTYYADSVQGRFTISRDNAMNTVYLQMNSLKPEDTAVYYCAATGSSSMSSYYLGQGTQVTVSS | high polyreactivity |
| QFQLVESGGGLVQAGGRLRLSCAASGVIFSYYAMGCYRQAPGKERELVAAISSSGSRTYYADSVKGRFTISRDNAKNTVYLQMNRLKPEDTAVYYCAARGAAKYGYWGQGTQVTVSS | high polyreactivity |
| QVQLVESGGGLVQAGGSLRLSCAASGSTFHYYAMGWYRQAPGKERELVAAISYRGSTYYADSVKGRFTISRDNAKNTVYLQMNSLKPEDTAVYYCAVVSSRGRRIYGYWGQGTQVTVSS | high polyreactivity |
| QVQHVDSGGGLVQAGGSLLLSCAASGFTFRTYAMGWYRQAPGKEREFVAAITTSGGSTYYADSVKGRFTISRDNAKNTVYLQMNSLKPEDTAVYYCAAKKATVVYRMEYWGQGTLVTVSS | high polyreactivity |
| QVQLVESGGGLVQAGGSLRLSCAASGRTSLRYAMGWYRLAPGKDRELVAAIRYGGGSTRYADSVKGRFTISRDNAKNTVYLQMKSLKPEDTAVSYCAARYFPRIQYGRKGYDYWGQGTQVTVSA | low polyreactivity |
| QVQLVESGGGLVQAGGSLRLSCAASGSTYRYYAMGWYRQAPGKERELVAGISWSGTSTYYADSVKGRFTISRDNANNTVYLQMNSLKPEDTAVYYSNVVWWSRYGTTYKYDYWGQGTQVTVSS | high polyreactivity |
| QVQLVESGGGLVQAGGSLRLSCAASGSIFRAYAMGWYRQAPGKERELVADISRSGGSTYYADSVKGRFTISRDNAKNTVYLQLNSLKPEDTAVYYCAAVFYLYSNLYGEYDYWGQGTQVTVSS | low polyreactivity |
| QVQLVESGGGLVQAGGSLRLSCAASGSIFWSYDMGWYRQAPGKERELVPTITSGDSTYYADSVKGRFTISRDNAKNTVYLQMNSLKPEDTAVYYCAAGTYYRRTYWHREYDYWGQGTQVTVSS | low polyreactivity |
| QVQLVESGGGLVQAGGSLRLSCAASGNIFSAYALGWYRQAPGKERELVATITSGGITYYADSVKGRFTISRDNAKNTVYLQMNSLNPEDTAVYYCNADHHGQAEYGYWGQGTQVTVSS | low polyreactivity |
| QVQLVESGGGLVQAGGSLRLSCAASGIIVDYYAMGWYRQAPGKERELVATITSGGSTNYADSVKGRFTISRDNAKNTVYLPMNSVKPEDTAVYYCAARTYWFPDIYPGLGMDYWGQGTQVTVSS | low polyreactivity |
| QVQLVESGGGLVQAGGSLRLICAASGSTFPKYAMGWYRQAPGKERELVASISVTTGSTYYADSVKGRFTISRDYAKNTVYLQMNSLKPEDTAVYYCAKRTYSRKFRGAYNYWGQGTQVTVSS | high polyreactivity |
| QVQLVESGGGLVQAGGILRLSCAASGRTFDSNAMGWYRQAPGKERELVAAISWSGGSTYYADSVKGRFTISRDNAKNTVYLQMNSLKPEDTAVYYCNRLGRHAPATRYGYWGQGTQVTVSS | high polyreactivity |
| QVQLVESGGGLVQAGGSLRLSCAASGSIFVSNAMGWYRQAPGKERELVAAITSSGSTDYADSVKGRFTISRDNAKNTVYLQMNSLKPDDTAVYYCAAESDHTFFLWSLNDSWGQGTQVTVSS | low polyreactivity |
| QVQLVESGGGLVQAGGSLRLSCAASGSTFVYNAMGWYRQAPGKERELVAAITSRGGSTDYADSVKGRFTISRDNAKNTVYLQMNSLKPEYTSVYYCAADYSHTGSRYYQEGDYWGQGTQVTVSS | low polyreactivity |
| QVQLVESGGGLVQAGGSLRLSCADSGIIFRYYAMGWYRQAPGKERELVADISRRGGSTYYADSVKGRFTISRDNAKNTVYLQMNSLKPEDTAVYYCAAKYRVYNYSPWGPYNYWGQVTQVTVSS | high polyreactivity |
| QVQLVESGGGLVQAGGSLRLSCAASGRTLYTNAMGWYRQPPGKEREFVASISGSGGSTYYADSVKGRFTISRDNAKNTVDLQMNRLKQEDTAVYYCAADPAQTVEFGKYDYWGQGTQVTVSS | low polyreactivity |
| QVQLVESGGGLVQAGGSLRLSCAASGRIFHFNAMGWYRQAPGKERELVATITKRGGRTYYADSVKGRFTISRDNAKNTVYLQMNSLKPEDTAVYYCNADQSRYSAVSGYDYWGQGTQVTVSS | high polyreactivity |
| QVQLVESGGGLVQAGGSLRLSCAASGSTFSYYTMGWYRQAPGKERELVAAISKSGGITYYADSVKGRFTISRDNAKNTVYLQMNSLKPEDTAVYYCAADGGYYDDDYWGQGTQVTVSS | high polyreactivity |
| QVQLVESGGGLVQAGGSLRLSCAASGIIFGTNAMGWSRQAPGKERELVAGITSSGDSTYYADSVKGRFTISRDNAKNTVYLQMNSLKPEDTAVYYCARDIRTREFDSWGQGTQVTVSS | low polyreactivity |
| QVQLVESGGGLVQAGGSLRLSCAASGSIFYAYVMGWYRQAPGKERELVAAISSGGSTYYADSVKGRFTISRDNAKNTVYLQMNSLKPEDTAVYYCAVGRPSGWSYYTGGDYWGQGTQVTVSS | high polyreactivity |
| QVQLVESGGGLVQEGCSLRLICAASGSIFGYYAMGWYRQAPGKERELVAAISTAGSTNYADSVKGRFTISRDNAKNTVYLQMNSLKPEDTAVYYCAKKSSWYYPERFDYWGQGTQVTVSS | low polyreactivity |
| QVQLVESGGRLVQAGGSLRLLCAASGLILHKYAMGWYRQAPGKERELVASINSGANTNYADSVKGRFTISRDNAKNTVYLQMNSLKPEDTAVYYCNADPGFRSGDYGYSSFDYGGQGTQVTVSS | low polyreactivity |

| Sequence | polyreactivity (PSR sort gate) |
| --- | --- |
| QVQLVESGGGLVQAGGSLRLSCAASGSIFGRYAMGWSRQAPGKERELVAAISRGGSTNYADSVKGRFTISRDNAKNTVYLQMNSLKPEDTAVYYCNRKPYYVSSTRYDYWGQGTQVTVAS | high polyreactivity |
| QVQLVESGGGLVQAGGSLRLSCAASGRIFYGNVMGWYRQAPGKERELVAAISGGGSTNYADSVKGRFTISRDNAKNTVYLQMNSLKPEDTAVFYCAADSRPWGSSMDYWGQGTKVTVSS | low polyreactivity |
| QVQLVDSGGGLVQAGGSLRLSCAASGSIFTAYAMGWYRQAPGKERELVAAITSGGSTNYADSVKGRFTISRDNAKNTVYLQMNSLKPEDTAVYYCNADDYWLDSWSSVLWYDYWGQGTQVTVSS | low polyreactivity |
| QVQLVESGGGLVQAGGSLRLSCAASGSIFLRYAMGSYRQAPGKDRELVAAITRSGGSTYYADSVKGRFTISRDNANNTVDLQMNSLKPEDTAVYYCAAYTLVTVGYDYWGQGTQVTVSS | high polyreactivity |
| QVQLVESGGCLVQPGGSLRLSCAASGRTSVRNAMGWYRQAPGKERELVAAISNGGRTNYADSVKGRFTISRGNAKNTVYLQMNSLKPQDTAVYYCAARGFWLYYHGGVRSGYDYWGQGTQVTVSS | high polyreactivity |
| QVQLVESGGGLVQAGGSLRLSCAASGRIFWYYTMGWYRQAPGKERELVAAISNGGSTYYADSVKGRFTISRDNAKNPVYLQMNSLKPEDTAVYYCAADNFRNPDYYYWGQGTQVTVSS | high polyreactivity |
| QVQLVESGGGLVQAGGSLRLSCAASGSIFGPNPMGWYRQAPGKERELVAAISWTGGRTYYADSVKGRFTISRDNAKNTVYLQMNSLKPEDTAVYYCAAARYLSGGYEKYDYWGQGTQVTVST | low polyreactivity |
| QVQLVESGGGLVQAGGSLRLSCAASGNIFDPYAMGWYIQAPGKERELVAVINASGDSTYYADSVKGRFTISRDNAKNTVYLQMNSLKPEDTAVYYCAADHRGEYDYWGQGTQVTVSS | low polyreactivity |
| QVQLVESAGGLVQAGGSLRLSCSASGTIIWFYAMGWYRQAPGKERELVAAITRSGGSTYYADSVKGRFTISRDNAKNTVYLQMNSLKPEDTAVYYCAAGTVDYRGYFEMYYWGQGTQVTVSS | low polyreactivity |
| QVQLVESGGGLVQAGGSLRLSCAASGFIFWSYAMVWYRQAPGKERELVAAISHGGSTNYADSVKGRFTISRDNSKNTVYLQMNSLKPEDTAVYYCAKDELYIPGVWPYYEYDYWGQGTQVTVSS | low polyreactivity |
| QVQLVESGGGLVQAGGSLRLICAASGSIFYHNGMGWYRQAPGKERELVAGISSTGSTYYADSVKGRVTLSRDNAKNTVYLQMNSLKPEDTAVYYCATDFGDIGDDAHSLGYDYWGQGTQVTVSS | low polyreactivity |
| QVQLVESGGGLVQAGGSLRLSCAASGRIFGYNAMGWYRQAPGKERELVDAITTSGGSTYYADSVKGRFTISRDNAKNTVYLQMNSLKPEDTAVYYCARDSLQVFYPYASDDYWGQGTQVTVSS | low polyreactivity |
| QVQLVESGGGLVQAGGRLRLSCAASGSIIISNGMGWSRQAPGKERELVATISWIGGSTYYADSVKGRFTISRDNAKNTVYLQMNSLKPEDTAVYYCAADVVLARPFEGDYWGQGTQVTVSS | low polyreactivity |
| QVQLEESGGGLVQAGGSLRLSCAASGRNFLYNAMGWYRQAPGKERELVAAITASGGTTYYADSVKGRFTISRDNAKNNVYLQMNSLKPEDTAVYYCNAYSYSGERYYWGQGTQVTVSS | high polyreactivity |
| QVKLVESGGGLVQAGGSLRLSCAASGRNFYVYGMGWYRQAPGKERELVASITYRCGSTSYADSVKGRFTISRDNAKNTVYLQMNSLKPEDTAVYYCNADTYYRSDYWGQGTQVTVSS | high polyreactivity |
| QVQLVESGGGLVQAGGSLRISCAASGSTSYNYVMGWYRQAPGKERELVAGITWSDDITYYADSVKGRFTISRDNAKNTVYLQMNSLKPEDTAVYYCAAEDRPLYWRFPDEMDYWGQGTQVTVSS | low polyreactivity |
| QVQLVESGGGLVQAGGSLRLSCADSGRTFCKYVMRWYRQAPGKERELVAVISRPAGSTYYADSVKGRFTISRDNAKNTVYLQMNSLKPEDTAVYYCAKRPKNKPVLGDYDHWGQGTQVTVSS | low polyreactivity |
| QVQLVESGGGLVQAGGSLRLSCAASGSIFGTNAMGWYIQAPGKEREFVATISSRTGSTYYADSVKGRFTFSRDNAKNTVYLQMNSLKPEDTAVYYCAAVRWYGKYDYWGQGTQVTVSS | low polyreactivity |
| QVQLVESGGGLVQAGGSLRLSCAASGRTFHVYAMGWYRQAPGKERELVATITDGSTNYADSVKGRFTISRDNAKNTVYLQMNRLKPEDNAVYYCATVRDWIPSGDYEYWGQCTQVTVSS | low polyreactivity |
| QVQLVQSGGGLVQAGGSLRLSCAAYGSTFVRYVKGWYRQAPGKERELVAAISRRGGSTYYADSVKGRFRISRDNAKNTVFLQMNSLKPEDTAVSYCARTVGYRTLLESDSWGQGTQVTVSS | high polyreactivity |
| QVQLVESGGGLVQAGGSLRLSCAASGSTFIIYAMGWSRQAPGKERELVAAITRDGSTYADSVKRRFTISRDNAKNTVYLQMNRLKPEDTAVYYCAATSRQGYDYWGQGTEVTVSS | high polyreactivity |
